Key:
Assay in all cases: cleavage_in_vitro
[1] = tested on: T1, OMNI-56 (Chryseobacterium sp. G0240); conditions: PAM NNRNGG; TXTL
T1 sequence: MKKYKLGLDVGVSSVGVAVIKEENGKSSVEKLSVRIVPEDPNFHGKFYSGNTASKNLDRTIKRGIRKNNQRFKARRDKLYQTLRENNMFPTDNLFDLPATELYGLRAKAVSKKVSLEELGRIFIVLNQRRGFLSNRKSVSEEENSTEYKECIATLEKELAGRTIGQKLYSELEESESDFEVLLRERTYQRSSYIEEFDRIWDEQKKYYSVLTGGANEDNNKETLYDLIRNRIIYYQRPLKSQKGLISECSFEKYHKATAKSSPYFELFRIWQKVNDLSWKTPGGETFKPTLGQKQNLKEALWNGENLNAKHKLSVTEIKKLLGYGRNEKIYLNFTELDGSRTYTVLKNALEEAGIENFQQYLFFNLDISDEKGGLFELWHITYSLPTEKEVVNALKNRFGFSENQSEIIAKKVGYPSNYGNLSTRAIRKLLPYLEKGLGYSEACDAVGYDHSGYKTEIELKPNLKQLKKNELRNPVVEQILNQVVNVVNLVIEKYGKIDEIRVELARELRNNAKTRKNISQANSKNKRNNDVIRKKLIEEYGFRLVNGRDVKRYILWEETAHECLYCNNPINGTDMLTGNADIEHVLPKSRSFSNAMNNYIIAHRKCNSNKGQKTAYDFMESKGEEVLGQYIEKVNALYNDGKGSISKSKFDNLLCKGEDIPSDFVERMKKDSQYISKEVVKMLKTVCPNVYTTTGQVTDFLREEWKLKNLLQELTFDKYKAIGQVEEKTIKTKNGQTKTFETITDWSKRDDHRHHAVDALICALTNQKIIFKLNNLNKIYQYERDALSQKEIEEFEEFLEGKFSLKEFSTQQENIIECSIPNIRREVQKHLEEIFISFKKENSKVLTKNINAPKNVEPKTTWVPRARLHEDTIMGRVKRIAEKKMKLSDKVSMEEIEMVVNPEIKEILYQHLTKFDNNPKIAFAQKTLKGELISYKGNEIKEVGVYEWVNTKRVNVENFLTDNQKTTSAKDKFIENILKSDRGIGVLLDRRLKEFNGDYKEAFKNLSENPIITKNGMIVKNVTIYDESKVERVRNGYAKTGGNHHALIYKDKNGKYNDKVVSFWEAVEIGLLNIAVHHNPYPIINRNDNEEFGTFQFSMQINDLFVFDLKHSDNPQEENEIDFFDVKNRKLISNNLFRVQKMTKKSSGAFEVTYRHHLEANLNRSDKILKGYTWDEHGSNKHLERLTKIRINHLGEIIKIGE

[2] = tested on: T2, OMNI-71 (Hyphobacterium sp. 2ED5); conditions: PAM NGG; TXTL
T2 sequence: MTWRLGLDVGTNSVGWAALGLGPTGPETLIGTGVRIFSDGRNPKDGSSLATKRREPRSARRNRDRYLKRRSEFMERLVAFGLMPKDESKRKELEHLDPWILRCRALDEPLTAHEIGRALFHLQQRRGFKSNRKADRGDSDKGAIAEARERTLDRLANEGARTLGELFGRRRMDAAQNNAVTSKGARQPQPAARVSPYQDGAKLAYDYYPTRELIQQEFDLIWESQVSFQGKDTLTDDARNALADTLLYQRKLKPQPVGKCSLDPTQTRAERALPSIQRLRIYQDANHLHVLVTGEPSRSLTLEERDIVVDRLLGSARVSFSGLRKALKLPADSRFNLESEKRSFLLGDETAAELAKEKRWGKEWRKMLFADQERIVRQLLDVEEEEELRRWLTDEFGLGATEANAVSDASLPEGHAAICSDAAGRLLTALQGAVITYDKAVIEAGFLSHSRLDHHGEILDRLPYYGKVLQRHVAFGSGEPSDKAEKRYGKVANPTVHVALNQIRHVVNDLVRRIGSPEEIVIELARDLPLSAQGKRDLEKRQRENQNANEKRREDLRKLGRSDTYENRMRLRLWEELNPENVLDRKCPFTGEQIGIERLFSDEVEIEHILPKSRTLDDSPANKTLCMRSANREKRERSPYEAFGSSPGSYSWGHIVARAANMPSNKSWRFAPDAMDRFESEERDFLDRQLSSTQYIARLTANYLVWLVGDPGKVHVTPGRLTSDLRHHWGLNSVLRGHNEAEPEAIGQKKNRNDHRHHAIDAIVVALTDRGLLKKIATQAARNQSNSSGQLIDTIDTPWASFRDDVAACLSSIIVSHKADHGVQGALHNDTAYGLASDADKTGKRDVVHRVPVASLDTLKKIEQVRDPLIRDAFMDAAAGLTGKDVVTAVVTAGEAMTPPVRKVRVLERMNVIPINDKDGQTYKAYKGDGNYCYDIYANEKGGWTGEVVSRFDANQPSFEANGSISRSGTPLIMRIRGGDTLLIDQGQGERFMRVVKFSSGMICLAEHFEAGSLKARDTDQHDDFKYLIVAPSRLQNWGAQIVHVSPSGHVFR

[3] = tested on: T3, OMNI-65 (Faecalibacterium sp. An192); conditions: PAM NNNVTA; TXTL
T3 sequence: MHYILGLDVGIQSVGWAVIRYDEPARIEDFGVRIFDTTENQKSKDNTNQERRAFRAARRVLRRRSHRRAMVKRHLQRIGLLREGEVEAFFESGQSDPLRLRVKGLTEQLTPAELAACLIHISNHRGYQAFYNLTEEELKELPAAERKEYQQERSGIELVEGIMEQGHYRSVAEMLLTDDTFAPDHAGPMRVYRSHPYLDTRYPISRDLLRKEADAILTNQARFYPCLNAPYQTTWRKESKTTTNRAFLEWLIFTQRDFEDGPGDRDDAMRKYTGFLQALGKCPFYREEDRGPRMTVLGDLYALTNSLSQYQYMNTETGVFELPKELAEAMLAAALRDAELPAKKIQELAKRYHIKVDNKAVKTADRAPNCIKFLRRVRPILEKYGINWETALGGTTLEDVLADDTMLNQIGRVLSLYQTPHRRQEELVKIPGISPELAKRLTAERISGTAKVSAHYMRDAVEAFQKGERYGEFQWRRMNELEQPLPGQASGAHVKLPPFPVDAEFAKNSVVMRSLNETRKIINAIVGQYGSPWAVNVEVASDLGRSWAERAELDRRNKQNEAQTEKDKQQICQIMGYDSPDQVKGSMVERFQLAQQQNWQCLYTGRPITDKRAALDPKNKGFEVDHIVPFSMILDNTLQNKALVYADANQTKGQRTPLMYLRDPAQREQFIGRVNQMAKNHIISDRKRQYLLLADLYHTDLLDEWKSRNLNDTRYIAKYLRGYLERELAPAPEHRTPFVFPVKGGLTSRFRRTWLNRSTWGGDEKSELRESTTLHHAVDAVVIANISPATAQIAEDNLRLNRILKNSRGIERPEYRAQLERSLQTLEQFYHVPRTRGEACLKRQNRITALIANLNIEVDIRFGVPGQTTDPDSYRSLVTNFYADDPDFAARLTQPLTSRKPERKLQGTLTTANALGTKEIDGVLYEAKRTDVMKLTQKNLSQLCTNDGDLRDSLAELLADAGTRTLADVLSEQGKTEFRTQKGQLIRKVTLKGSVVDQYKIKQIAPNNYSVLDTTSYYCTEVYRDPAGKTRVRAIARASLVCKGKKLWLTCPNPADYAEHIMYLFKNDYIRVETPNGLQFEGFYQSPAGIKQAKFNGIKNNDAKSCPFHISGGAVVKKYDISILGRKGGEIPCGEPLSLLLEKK

[4] = tested on: T4, OMNI-58 (Collinsella sp. AM13-34); conditions: PAM NNNNCCA; TXTL
T4 sequence: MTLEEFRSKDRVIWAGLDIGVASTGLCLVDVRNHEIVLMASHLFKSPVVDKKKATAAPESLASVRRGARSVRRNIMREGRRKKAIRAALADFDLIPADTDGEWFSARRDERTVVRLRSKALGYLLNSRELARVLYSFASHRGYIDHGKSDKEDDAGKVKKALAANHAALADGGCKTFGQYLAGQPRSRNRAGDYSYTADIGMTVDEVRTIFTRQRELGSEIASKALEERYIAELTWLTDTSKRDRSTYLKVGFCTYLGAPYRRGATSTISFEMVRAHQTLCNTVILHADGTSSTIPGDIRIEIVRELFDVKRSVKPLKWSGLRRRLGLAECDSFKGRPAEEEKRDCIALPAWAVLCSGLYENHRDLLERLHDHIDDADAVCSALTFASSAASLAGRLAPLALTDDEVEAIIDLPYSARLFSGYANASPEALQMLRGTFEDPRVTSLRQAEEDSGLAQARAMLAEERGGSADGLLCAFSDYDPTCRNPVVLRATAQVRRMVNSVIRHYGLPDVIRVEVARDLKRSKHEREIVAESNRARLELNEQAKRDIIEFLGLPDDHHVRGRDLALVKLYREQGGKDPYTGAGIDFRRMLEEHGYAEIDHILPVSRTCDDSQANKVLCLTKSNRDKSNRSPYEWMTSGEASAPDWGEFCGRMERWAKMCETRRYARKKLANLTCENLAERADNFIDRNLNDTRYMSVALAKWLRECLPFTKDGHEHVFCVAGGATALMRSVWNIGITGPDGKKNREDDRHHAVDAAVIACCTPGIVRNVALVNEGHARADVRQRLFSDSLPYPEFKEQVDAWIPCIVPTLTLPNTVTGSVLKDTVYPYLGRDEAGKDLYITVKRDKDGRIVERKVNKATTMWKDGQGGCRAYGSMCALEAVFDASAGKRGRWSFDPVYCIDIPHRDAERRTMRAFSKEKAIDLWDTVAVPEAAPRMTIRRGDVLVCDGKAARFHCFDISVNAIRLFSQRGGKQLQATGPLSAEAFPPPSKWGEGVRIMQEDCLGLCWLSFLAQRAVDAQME

| Sequence | activity (1-depletion score) [1] | activity (1-depletion score) [3] | activity (1-depletion score) [4] | also measured |
| --- | --- | --- | --- | --- |
| GGAAGAGCAGAGCCUUGGUCUCGUUGUGAAUUGCUUUCAAAAUUUAUUAUCUUCGAAAUUGGAUUAUAAAUUUUGAAAGCAAUUCACAAUAAGGAUUAUUCCGUUGUGAAAACAUUUAAGCCCCCUCGUCUUACCAUACGGGGGAUUUUUU / GGAAGAGCAGAGCCTTGGTCTCNNNNNNNN / NNNNNNNNGAGACCAAGGCTCTGCTCTTCC | 0.53 |  |  |  |
| GGAAGAGCAGAGCCUUGGUCUCGUUGUGAAUUGCUUUCGAAAGAAAGCAAUUCACAAUAAGGAUUAUUCCGUUGUGAAAACAUUUAAGCCCCCUCGUCUUACCAUACGGGGGAUUUUUU / GGAAGAGCAGAGCCTTGGTCTCNNNNNNNN / NNNNNNNNGAGACCAAGGCTCTGCTCTTCC | 0.69 |  |  |  |
| GGAAGAGCAGAGCCUUGGUCUCGUUCCGGUUGGAGAAAUCUUUCCGGUAACAAGGUUUAGACCACAAAAUGGAACGGCCUCUUCGGGGGUCGUUCUUUUUUU / GGAAGAGCAGAGCCTTGGTCTCNNNNNNNN / NNNNNNNNGAGACCAAGGCTCTGCTCTTCC |  |  |  | activity (1-depletion score) [2]: 0.96 |
| GGAAGAGCAGAGCCUUGGUCUCGUUUUGGUUCUCUGAUGGGAAACAUCAGAAGUUCUAAGAUAAGGCUUUACGCCGCAGGGUAUGGUGGUAUCCCAAAUAUUCCACCAUUUGAUUGUAUCUGAAAGCGUCCGGUUCGGGCGCUUUUU / GGAAGAGCAGAGCCTTGGTCTCNNNNNNNN / NNNNNNNNGAGACCAAGGCTCTGCTCTTCC |  | 0.94 |  |  |
| GGAAGAGCAGAGCCUUGGUCUCGUUUUGGUUCUCUGAGAAACAGAAGUUCUAAGAUAAGGCUUUACGCCGCAGGGUAUGGUGGUAUCCCAAAUAUUCCACCAUUUGAUUGUAUCUGAAAGCGUCCGGUUCGGGCGCUUUUU / GGAAGAGCAGAGCCTTGGTCTCNNNNNNNN / NNNNNNNNGAGACCAAGGCTCTGCTCTTCC |  | 0.94 |  |  |
| GGAAGAGCAGAGCCUUGGUCUCGCCCUAGCGCGGAAAAACGUUUGGGCAAGAGGGCCCGUUAAAGACGGGUCACUCGCGGAGUAUAUCCCGCAGGGUGCUUUUCGCACUCUGCGGGUGAUCUCCUUUUCCCUCCUUUUUU / GGAAGAGCAGAGCCTTGGTCTCNNNNNNNN / NNNNNNNNGAGACCAAGGCTCTGCTCTTCC |  |  | 0.88 |  |
| GGAAGAGCAGAGCCUUGGUCUCGCCCUAGCGCGUUGGAAAAGUAACGUUUGGGCAAGAGGGCCCGUUAAAGACGGGUCACUCGCGGAGUAUAUCCCGCAGGGUGCUUUUCGCACUCUGCGGGUGAUCUCCUUUUCCCUCCUUUUUU / GGAAGAGCAGAGCCTTGGTCTCNNNNNNNN / NNNNNNNNGAGACCAAGGCTCTGCTCTTCC |  |  | 0.93 |  |
| GGAAGAGCAGAGCCUUGGUCUCGUUGUGAAUUGCUUUCAUAAUUUAUUAUCUUCGAAAUUGGAUUAUAAAUUAUGAAAGCAAUUCACAAUAAGGAUUAUUCCGUUGUGAAAACAUUUAAGCCCCCUCGUCUUACCAUACGGGGGAUUUUUU / GGAAGAGCAGAGCCTTGGTCTCNNNNNNNN / NNNNNNNNGAGACCAAGGCTCTGCTCTTCC | 0.69 |  |  |  |
| GGAAGAGCAGAGCCUUGGUCUCGUUUUGGUUCUUCUGGAAACAGAAGUUCUAAGAUAAGGCUUUACGCCGCAGGGUAUGGUGGUAUCCCAAAUAUUCCACCAUUUGAUUGUAUCUGAAAGCGUCCGGUUCGGGCGCUUUUU / GGAAGAGCAGAGCCTTGGTCTCNNNNNNNN / NNNNNNNNGAGACCAAGGCTCTGCTCTTCC |  | 0.93 |  |  |
| GGAAGAGCAGAGCCUUGGUCUCGCCCUAGCGCGGAAAAACGUUUGGGCAAGAGGGCCCGUUAAAGACGGGUCACUCGCGGAGUAUAUCCCGCAGGGUGCUAUUCGCACUCUGCGGGUGAUCUCCUAUUCCCUCCUUUUUU / GGAAGAGCAGAGCCTTGGTCTCNNNNNNNN / NNNNNNNNGAGACCAAGGCTCTGCTCTTCC |  |  | 0.86 |  |

Source: US20230383273
